From article PMC8092405 (Proceedings of the National Academy of Sciences of the …, 2021)

B1: human CCL19, unlabeled (ligand)
chain: GTNDAEDCCLSVTQKPIPGYIVRNFHYLLIKDGCRVPAVVFTTLRGRQLCAPPDQPWVERIIQRLQRTSAKMKRRSS
B2: human CXCL13, unlabeled (ligand)
chain: VLEVYYTSLRCRCVQESSVFIPRRFIDRIQILPRGNGCPRKEIIVWKKNKSIVCVDPQAEWIQRMMEVLRKRSSSTLPVPVFKRKIP

Molecular target: human G protein-coupled receptor 182 (GPR182) (human, UniProt O15218 1-404)
Sequence (O15218 whole entry): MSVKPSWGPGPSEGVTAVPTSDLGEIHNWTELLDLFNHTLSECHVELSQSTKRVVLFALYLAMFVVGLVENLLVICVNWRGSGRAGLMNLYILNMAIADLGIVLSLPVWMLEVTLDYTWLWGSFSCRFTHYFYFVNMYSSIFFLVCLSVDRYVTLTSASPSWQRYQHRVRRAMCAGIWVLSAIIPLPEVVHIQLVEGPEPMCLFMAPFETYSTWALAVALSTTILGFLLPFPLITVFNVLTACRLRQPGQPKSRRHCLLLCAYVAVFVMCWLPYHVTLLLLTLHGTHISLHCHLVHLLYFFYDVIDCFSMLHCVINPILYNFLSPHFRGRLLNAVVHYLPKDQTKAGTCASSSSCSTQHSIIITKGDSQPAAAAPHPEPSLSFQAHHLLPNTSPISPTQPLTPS

| Binder | Ki [nM] |
| --- | --- |
| B1 | 260 |
| B2 | 9 |
